Reference: the supplement of paper PMC10567573
± gives the standard deviation.

Experiment: protein stability index of a GFP-peptide fusion (GPS, HEK-293T) (PSI 1-6); higher = more stable
[1] = treatment: DMSO, c terminus: a fixed tail appended
[2] = treatment: MLN4924 1 uM, 8 h, c terminus: a fixed tail appended
[3] = treatment: DMSO, c terminus: native
[4] = treatment: MLN4924 1 uM, 8 h, c terminus: native
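Also: 24-mer peptide tiles fused after GFP, lentivirally expressed, FACS-sorted into six equal bins by GFP/DsRed ratio, decoded by Illumina sequencing, PSI is the read-weighted mean bin number.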

Sequence	protein stability index [1]	protein stability index [2]	protein stability index [3]	protein stability index [4]
LAEYCIKTKVPSNDNSSDLLYDDL [UBE2R2]	4.13 ± 0.17	4.19 ± 0.32	–	–
QALLKENRLLQEENRTLQVLRAEH [CBY2]	4.02 ± 0.2	4.2 ± 0.065	–	–
SDAANRNHEALRQAKQEMNESRRQ [PRPH]	5.2 ± 0.26	4.96 ± 0.34	–	–
KVPVITSSKEEQKLIATSNKPAVK [KCTD10]	4.92 ± 0.27	5.29 ± 0.23	–	–
SGPEEPLLEEEEKQWGPLEREPVR [RTN2]	5.51 ± 0.21	5.47 ± 0.34	–	–
SNYIFVAIFWIVFLLLIVFYTAIT [P2RY14]	2.26 ± 0.26	2.1 ± 0.41	–	–
SIWAQNQVENWSAFAPDFKELDEN [RBBP5]	4.26 ± 0.26	4.23 ± 0.23	–	–
PGSNLNLLTNNSGTPKDHDSPENG [ETS2]	5.33 ± 0.22	5.31 ± 0.26	–	–
LWQFLLELLTDKSCQSFISWTGDG [ETS1]	2.96 ± 0.47	3.13 ± 0.46	–	–
NELQHDLDVVSDALAKVSRKPSI [TPH1]	–	–	5.17 ± 0.39	5.33 ± 0.11
IDVSKREPPPVKQELPPYNGFGLV [EFHC1]	3 ± 0.095	3.03 ± 0.27	–	–
TDLDAVRTPEPLEEFPKREDQEGS [MYBL2]	5.43 ± 0.11	5.52 ± 0.21	–	–
TDEEEGLIWVVGPVLAVVFIICIV [PTPRD]	2.1 ± 0.4	2.07 ± 0.46	–	–
PDECGKTEFTRFLCSSPLEAETPP [ATE1]	4.8 ± 0.071	4.88 ± 0.13	–	–
HQLGFIHRDIKPDNLLLDAKGHVK [STK38L]	3.71 ± 0.31	4.12 ± 0.26	–	–
QQQVKTNGAGVTVLRREISELRTK [FBXO28]	4.32 ± 0.19	4.44 ± 0.32	–	–
PLVTMDDAMERTVQSFRHLRRVK [NSDHL]	–	–	3 ± 0.25	3.23 ± 0.18
PAVRQRVIEEAKTAFLLNIQLFEE [HMOX1]	2.66 ± 0.37	3.17 ± 0.26	–	–
PQSLPSTPKAAWIREEGRCSSSDD [PBXIP1]	5.25 ± 0.2	5.27 ± 0.14	–	–
MADERKDEAKAPHWTSAPLTEASA [MAP2]	5.22 ± 0.43	5.41 ± 0.19	–	–
AGDEAVFAQYDSFHVDSAAEYYRL [TNXB]	3.51 ± 0.38	3.68 ± 0.13	–	–
TYHVGKQCFFNGVFLGNKRSLSER [SPATS1]	2.36 ± 0.21	2.59 ± 0.22	–	–
KLQGLENWGQDPGVSANASKAWHQ [PBXIP1]	3.27 ± 0.27	3.37 ± 0.28	–	–

Sequence	protein stability index [1]	protein stability index [2]	protein stability index [3]	protein stability index [4]
LTILPTEIETWVREHCPENRERVV [ZNF449]	3.23 ± 0.2	3.42 ± 0.29	–	–
AFAQRPSSAPDLMCLSPDRKMEVE [CDC25B]	4.97 ± 0.3	4.78 ± 0.14	–	–
AIGVSISLSSIATCVYIAEIAPQH [SLC2A12]	3.17 ± 0.13	3.34 ± 0.38	–	–
PQLRICLRVSPAEQPRLEFLMRKC [FBXO33]	2.15 ± 0.48	2.11 ± 0.22	–	–
LKDVKSTLEKCEKVKTMEVTSVSI [TRIM39]	3.92 ± 0.16	3.89 ± 0.17	–	–
YLWMCSTLALLLNFLACLASFCVE [SCAMP3]	3.53 ± 0.36	3.02 ± 0.12	–	–
KKIQVNSKPSIQPKPLLLPAAPKT [ATF6]	4.18 ± 0.17	4.221 ± 0.027	–	–
NTQTPVQPPPPPPPPPMQPTVPSA [CCDC6]	5.05 ± 0.48	5 ± 0.1	–	–
GLFVPSLLCGAAFGRLVANVLKSY [CLCN6]	2.2 ± 0.55	2.37 ± 0.64	–	–
GEDEENREHRVRRIHVRRHITHDE [KCTD13]	5.23 ± 0.2	5.1 ± 0.29	–	–
LIQFLEQVHQGIKGMVLDENYNNL [CPN1]	2.62 ± 0.065	3.07 ± 0.61	–	–
QEVFEPPHYELCTLRGTGATADFA [NETO1]	3.91 ± 0.28	3.88 ± 0.26	–	–
CYMATTKSQTACLPFVLAAAVSRK [EHMT1]	2.14 ± 0.3	2.15 ± 0.15	–	–
QVEIFSTNPDLYPVRRIDGLTDVS [IQUB]	3.71 ± 0.29	3.68 ± 0.27	–	–
GSVADTVARVLRGCLENMPEADCI [PLK2]	2.88 ± 0.4	2.94 ± 0.33	–	–
RYEPLPPSLPAAGEQDCCGERVVI [KCNA3]	4.04 ± 0.16	4.08 ± 0.34	–	–
ASAETLPAGFRVSTLGTLQPPPAP [PPFIA4]	3.94 ± 0.35	4.06 ± 0.23	–	–
RLIRKMFSFKVSRWMGLACFRSLA [CCDC70]	2.35 ± 0.46	2.29 ± 0.45	–	–
LALIDYLTQKRSQLVKKLNDSDHQ [VPS39]	2.51 ± 0.14	2.77 ± 0.69	–	–
EREEITTKKRKLGKNPDVDTSFLP [FAM50A]	4.63 ± 0.35	4.79 ± 0.24	–	–
HTTGPTGSAPNSPMALLTIGSSSE [TFE3]	4.53 ± 0.12	4.54 ± 0.23	–	–
QIYHCTKRKEEECSTTDHPYKKPY [TBX5]	3.92 ± 0.095	4.25 ± 0.26	–	–
PCELPCKEYDVARNTGAYTSSGLA [TEKT4]	4.18 ± 0.19	4.23 ± 0.13	–	–

Sequence	protein stability index [1]	protein stability index [2]	protein stability index [3]	protein stability index [4]
HRAHHKFSETHADPHNSRRGFFFS [SCD]	3.08 ± 0.18	3.05 ± 0.3	–	–
FKPACMSEIKNLERYMCSRFFIDF [TENT5D]	2.55 ± 0.61	2.42 ± 0.58	–	–
PSSYNCSQSILPLEHGSIYIPSSY [ESR2]	2.17 ± 0.2	2.26 ± 0.26	–	–
LYGTKGNYTSRVWEYSSSIQNSDN [TRIM29]	3.04 ± 0.2	2.83 ± 0.26	–	–
IINAKSNDGWTPLHVAAHYGRDSF [ASB7]	2.46 ± 0.24	2.41 ± 0.42	–	–
LHPDRDPGNPSLHSRFVELSEAYR [DNAJC4]	3.37 ± 0.22	3.51 ± 0.19	–	–
LPKVLQKYWCVTATRVAPERLFGS [ZBED1]	2.47 ± 0.65	2.2 ± 0.21	–	–
AAPAVRASSSPVTLRQKTVDWRRV [SLA]	3.2 ± 0.54	3.17 ± 0.72	–	–
FLQKVAQMPQEEVELLPPAPKGKG [BRD3]	4.24 ± 0.17	4.32 ± 0.13	–	–
GSNYANFELDLGKKVLNLLKGAFP [PTPN9]	2.29 ± 0.42	2.12 ± 0.35	–	–
KEGARNIRTSERVTLIVDNTRFVV [BTBD10]	1.95 ± 0.32	2.29 ± 0.34	–	–
QPKEKIQAIIESCSRQFPEFQERA [NOL4L]	3.7 ± 0.36	3.85 ± 0.1	–	–
LDPSFPVEFVRHGDIIRLEHKETS [POMT2]	5.71 ± 0.17	5.59 ± 0.25	–	–
EDIDTSMYDNELWAPASEGLKPGP [SERTAD1]	4.84 ± 0.19	4.76 ± 0.17	–	–
FAQYDSFHVDSAAEYYRLHLEGYH [TNXB]	2.43 ± 0.81	2.26 ± 0.23	–	–
FNIAGTVVKYRRPMDVYETGIEYI [ADAMTSL2]	2.16 ± 0.33	1.8 ± 0.046	–	–
SPSPMDPHMAEQTFEQAIQAASRI [CDC25B]	4.68 ± 0.16	4.56 ± 0.25	–	–
RVKFRRQEANARERNRMHGLNDAL [NEUROD6]	3.37 ± 0.18	3.43 ± 0.34	–	–
ETSYLEMAAGSEPESVEASPVVVE [KMT2E]	5.38 ± 0.27	5.18 ± 0.34	–	–
QAMFDTLGIPKSTTSDIPHMLNQV [FAM98B]	3.18 ± 0.23	3.23 ± 0.26	–	–
GCASFIYLRPQSNYSSSQDALISV [OR10K2]	2.65 ± 0.81	2.54 ± 0.61	–	–
KMKTRELHRESSNFDSIYICPSTF [HDAC6]	2.26 ± 0.36	2.71 ± 0.39	–	–
AWLNEHRKNPYPTKGEKIMLAIIT [IRX6]	2.7 ± 0.42	2.51 ± 0.41	–	–

Sequence	protein stability index [1]	protein stability index [2]	protein stability index [3]	protein stability index [4]
EPVIKVAAIDNGLAFPLKHPDSWR [PI4K2A]	3.41 ± 0.28	3.02 ± 0.23	–	–
MNYSEIESKVREATNDDPWGPSGQ [CLINT1]	4.84 ± 0.22	4.96 ± 0.14	–	–
ALLESSLRQAQQNMDPKAAEEEEE [CCND1]	5.28 ± 0.29	5.42 ± 0.25	–	–
DKNTLKDHMRKKQHRKINPKNREY [ZNF277]	3.3 ± 0.33	3.28 ± 0.35	–	–
PPASARRLSVPRDSACDESSCIPK [IRX6]	5.33 ± 0.16	5.31 ± 0.14	–	–
GPSLVPGKTPTVRAALICLTLVLV [CD207]	2.28 ± 0.44	2.73 ± 0.62	–	–
APEYFEKNEPYLEAACNDVDRWPA [DENND6A]	4.59 ± 0.29	4.47 ± 0.38	–	–
RRVKLQLWDTSGQGRFCTIFRSYS [RAB40B]	2.21 ± 0.57	2.08 ± 0.32	–	–
SQFHSVRPQGPQLRQQQHKQNKQV [DNAJC4]	4.85 ± 0.12	4.87 ± 0.13	–	–
LFPASPTREAHRESSVPVTPSVPP [FBF1]	4.88 ± 0.19	4.84 ± 0.11	–	–
EHERAHRGEKPHGCSLCGKAFYKR [ZNF649]	2.79 ± 0.11	3.45 ± 0.59	–	–
LRENVPRVIMIVTDGRPQDSVAEV [MATN2]	3.088 ± 0.005	3.09 ± 0.17	–	–
EARFIRRSCTPNAEVRHEIQDGTI [KMT2E]	4.34 ± 0.67	4.27 ± 0.11	–	–
LKALTRNVNRLNESFRDLQLRLLQ [SCARA5]	2.37 ± 0.38	2.13 ± 0.46	–	–
PFTRRYYKEKFGITDLPRIDVSKR [EFHC1]	3.01 ± 0.36	3.3 ± 0.095	–	–
GSNDRVQGVISQLEDTCKTIEECC [TRIM55]	4.71 ± 0.098	4.77 ± 0.31	–	–
LDVEAAHSEILKYFQSVTSNRWLM [STX5]	2.06 ± 0.29	1.95 ± 0.055	–	–
TQTTNDGVCQSMCHDKYTKIFNDF [ZMYND11]	3.05 ± 0.2	3.27 ± 0.12	–	–
GFTPDRLSSSCCHTVPDFHLSSPA [PLK2]	3.02 ± 0.22	3.15 ± 0.16	–	–
RAKDLVELDPEVEGTKPSATEMIW [GOLPH3L]	4.07 ± 0.23	4.13 ± 0.45	–	–
